Measured values: patent EP4785962A1, “ANTIBODY-DRUG CONJUGATE TARGETING TROP2, AND PREPARATION METHOD AND USE THEREFOR” (priority 2023, dated 2025)

Tests used:
[1] = once every three weeks for a total of 3 times; WO2020240467A1; cited from earlier work
[2] = test system: pancreatic cancer cell line BxPC3; experiment: Mouse xenograft tumor model BxPC3; format: in vivo, immunodeficient mice CB17-SCID; conditions: low dose (3 mg/kg), intraperitoneal, single administration
Method: • 1. Mice: immunodeficient mice CB17-SCID (Vital River) aged 6-8 weeks were placed in an SPF experimental environment for 3-5 days before the experiment to better adapt to the current living environment. In all experiments, the long and short diameters of the tumor were measured twice a week using a vernier caliper, and the tumor volume (mm^3) was calculated from the measured data. The calculation formula is as follows: Tumor volume(mm^3) = 0.5 × long diameter(mm) × short diameter(mm) × short diameter(mm) [formula] • 2. Human gastric cancer cell line NCI-N87 (ATCC) cells were resuspended in 1× PBS (Gibco, 10010049) at an appropriate concentration, and the tumor cells were implanted subcutaneously in the right abdomen of the mice at an inoculation amount of 2×10^6 /mouse. When the tumor volume reached 150-200 mm^3, the mice were divided into groups such that the average initial administration volume of each group was substantially the same. After grouping, different doses of antibody-drug conjugates hRs7-DXd, hRS7-MB3 and hTINA1-DXd, or control-drug conjugates IgG-MB3, IgG-DXd and IgG control were administered by intraperitoneal injection. […] Compared with hRS7-DXd, hRS7-MB3 has a stronger tumor inhibitory effect. […] The growth status of the mice was observed, and the changes in tumor volume of the mice were measured. […]

B1: hTINA1-DXd: control ADC: antibody hTINA1 conjugated with Linker-DXd, average DAR 4.3; TROP2-ADC from Daiichi Sankyo (conjugate, chains of the INN, looked up)
VH: QVQLVQSGAEVKKPGASVKVSCKASGYTFTTAGMQWVRQAPGQGLEWMGWINTHSGVPKYAEDFKGRVTISADTSTSTAYLQLSSLKSEDTAVYYCARSGFGSSYWYFDVWGQGTLVTVSS
VL: DIQMTQSPSSLSASVGDRVTITCKASQDVSTAVAWYQQKPGKAPKLLIYSASYRYTGVPSRFSGSGSGTDFTLTISSLQPEDFAVYYCQQHYITPLTFGQGTKLEIK
modifications: deruxtecan (Linker-DXd), DAR 4.3
notes: control ADC: antibody hTINA1 conjugated with Linker-DXd, average DAR 4.3; TROP2-ADC from Daiichi Sankyo
HNSTD [1]: 30 mg/kg
tumor inhibitory effect [2]: equivalent tumor inhibitory effects
